{"source": "paper PMC4484258", "about": "“Identification of BST-2/tetherin-induced hepatitis B virus restriction and hepatocyte-specific BST-2 inactivation” (Scientific Reports, 2015)", "binders": {"B1": {"name": "BST-2 with an internal HA tag (BST-2 IHA), wild type (natural protein)", "chain": "MASTSYDYCRVPMEDGDKRCKLLLGIGILVLLIIVILGVPLIIFTIKANSEACRDGLRAVMECRNVTHLLQQELTEAQKGFQDVEAQAATCNHTVMALMASLDAEKAQGQKKVEELEGEITTLNHKLQDASAEVERLRRENQVLSVRIADKKYYPSSQDSS"}}, "biological_target": "HBV enveloped particles (HBsAg) released from cells transfected with the pCMV ayw HBV proviral construct (hepatitis B virus (ayw), UniProt P03138-1 1-389; P03138-2 1-281; P03138-3 1-226)", "sequence (P03138 whole entry, chain 1 of 3)": "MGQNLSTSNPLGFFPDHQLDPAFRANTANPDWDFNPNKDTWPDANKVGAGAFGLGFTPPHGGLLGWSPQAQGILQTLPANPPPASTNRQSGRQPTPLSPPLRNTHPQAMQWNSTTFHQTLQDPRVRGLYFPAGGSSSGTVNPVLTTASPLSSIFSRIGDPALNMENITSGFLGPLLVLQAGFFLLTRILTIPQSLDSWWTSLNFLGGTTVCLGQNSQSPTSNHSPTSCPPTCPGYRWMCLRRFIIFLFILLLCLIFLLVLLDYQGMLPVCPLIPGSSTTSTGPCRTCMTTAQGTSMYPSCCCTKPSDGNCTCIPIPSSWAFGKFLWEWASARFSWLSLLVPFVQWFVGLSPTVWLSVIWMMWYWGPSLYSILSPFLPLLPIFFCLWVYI", "sequence (P03138 109-389, chain 2 of 3)": "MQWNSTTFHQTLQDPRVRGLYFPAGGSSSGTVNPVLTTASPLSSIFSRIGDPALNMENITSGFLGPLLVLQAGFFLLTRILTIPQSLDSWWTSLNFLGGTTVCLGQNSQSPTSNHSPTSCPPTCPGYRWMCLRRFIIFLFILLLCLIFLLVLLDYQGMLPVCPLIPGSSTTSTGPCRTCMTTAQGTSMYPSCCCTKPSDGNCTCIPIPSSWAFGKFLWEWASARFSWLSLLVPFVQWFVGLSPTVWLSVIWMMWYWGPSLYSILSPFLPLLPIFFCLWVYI", "sequence (P03138 164-389, chain 3 of 3)": "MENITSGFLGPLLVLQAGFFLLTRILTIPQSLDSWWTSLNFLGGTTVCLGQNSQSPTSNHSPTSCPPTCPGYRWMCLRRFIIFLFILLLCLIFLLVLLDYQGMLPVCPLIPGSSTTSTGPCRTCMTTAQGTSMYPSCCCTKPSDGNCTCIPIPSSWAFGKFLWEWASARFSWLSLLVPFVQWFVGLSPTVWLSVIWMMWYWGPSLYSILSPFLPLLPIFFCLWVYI", "experiment": "cell-based or functional assay"}
{"binder": "B1", "values": [{"measurement": "BST-2-induced NF-κB signaling (pNF-κB-Luc reporter in 293T cells) in the presence of HBV expression", "value": "~10", "unit": "fold"}]}
